“Also recorded” adds a separate entry of the source.
Columns and labels:
[1] = test system: primary adult rat ventricular cardiomyocytes; experiment: Cytokinesis (aurora B kinase) in primary adult rat ventricular cardiomyocytes; assay type: cell-based
Description: (§1) Primary neonatal rat ventricular cardiomyocytes were isolated using the Neomyts kit (Cellutron, Highland Park, N.J.), seeded at a density of 10^5 cells/cm^2 onto gelatin-coated cover slips, stimulated for 3 days, and labeled with BrdU for the terminal 2 days. Primary adult ventricular cardiomyocytes were isolated from male (300 gm) Wistar rats (Charles River Laboratories) and maintained as described (Engel, F. B. et al. p38 MAP kinase inhibition enables proliferation of adult mammalian cardiomyocytes. Genes Dev 19, 1175-87 (2005)). Adult cardiomyocytes were stimulated daily for 9 days and labeled with 30 μM BrdU for the terminal 3 days. Cardiomyocytes were stimulated with periostin (500 ng/mL) and FGF (100 ng/mL). Inhibiting antibodies were added at a concentration of 10 μg/mL, cRGD at 10 μM, U0126 at 10 μM, PD98059 at 1 μM, LY294002 at 10 μM, and Wortmannin at 0.1 μM 30 min prior to stimulation. The vehicle used to dissolve factors or chemicals was added to unstimulated samples, which were then processed together with the test samples.
(§2) DNA-synthesis was analyzed by visualization of BrdU uptake and cytokinesis was determined by detection of the cleavage furrow and the midbody with an antibody against aurora B kinase as described (Engel, F. B. et al. p38 MAP kinase inhibition enables proliferation of adult mammalian cardiomyocytes. Genes Dev 19, 1175-87 (2005)). Signals were visualized with secondary antibodies conjugated to Alexa 488, Alexa 546, Alexa 594, and Alexa 647 (Invitrogen). Nuclei were visualized with 4′,6′-diamidino-2-phenylindole (DAPI, Invitrogen). For image acquisition, the value for γ was set at 1 and the lookup table settings were linear.

[2] = test system: primary neonatal rat ventricular cardiomyocytes; experiment: DNA synthesis, mitosis and cytokinesis in primary neonatal rat ventricular cardiomyocytes; assay type: cell-based
Description: as §1, §2

[3] = test system: primary neonatal rat ventricular cardiomyocytes; experiment: Cell cycle markers (Ki-67, phosphorylated Rb, cyclin A) in neonatal cardiomyocytes; assay type: cell-based
Description: as §1, §2

[4] = test system: atrial natriuretic factor (ANF); experiment: Transcription of atrial natriuretic factor by RT-PCR in neonatal cardiomyocytes; assay type: cell-based, rat; conditions: 72 hr stimulation
Method: RNA was prepared using Trizol reagent (Invitrogen) from neonatal rat ventricular cardiomyocytes after 72 hr of stimulation. Complementary DNA was synthesized from 2 μg RNA with the SuperScriptIII kit (Invitrogen) using oligo-dT primers. One μL cDNA was used as template for 20 μL PCR-reactions (95° C. for 2 min, 30 cycles of 95° C. for 2 min, 55° C. for 2 min, 72° C. for 5 min, followed by 72° C. for 10 min). Oligonucleotide primers used for detection of ANF were F: 5′-[…]-3′ (Seq ID No. 2), R: 5′-[…]-3′ (Seq ID No. 3), β-actin were F: 5′-[…]-3′ (Seq ID No. 4), R: 5′-[…]-3′ (Seq ID No. 5), […] were F: 5′-[…]-3′ (Seq ID No. 6), R: 5′-[…]-3′ (Seq ID No. 7); SMA were F: 5′-[…]-3′ (Seq ID No. 8), R: 5′-[…]-3′ (Seq ID No. 9); SERCA2 were F: 5′-[…]-3′ (Seq ID No. 10), R: 5′-[…]-3′ (Seq ID No. 11), and for GAPDH: 5′-[…]-3′ (Seq ID No. 12), R: 5′-[…]-3′ (Seq ID No. 13).

[5] = test system: differentiated cardiomyocytes; experiment: Hypertrophy by [3H]leucine uptake; assay type: cell-based, rat; conditions: phenylephrine 10 mM [sic]; all time points tested
Description: Induction of the fetal gene program is accompanied by increased protein synthesis leading to cardiomyocyte hypertrophy. We assessed cardiomyocyte hypertrophy by measuring uptake of [^3H]leucine.

[6] = test system: Adult male Sprague-Dawley rats; experiment: Cardiomyocyte cell cycle activity in vivo after intramyocardial injection; set-up: species or system rat; LVFW CM nuclei: unit not given here
Method: Experiments were performed in accordance with institutional guidelines of Massachusetts General Hospital. Injections and analyses were performed in a blinded fashion. Adult male Sprague-Dawley rats (300 gm, Charles River Laboratories) underwent thoracotomy and received intramyocardial injections of 50 μg of recombinant human periostin consisting of the fas1-4 domains, 50 μg of rat fibronectin, or 100 μL of 100 mM sodium acetate as a control (5 rats per group). The survival rate for this procedure was 80%. Injected periostin was confirmed by detection with a polyclonal antibody directed against human periostin (Abcam) and visualized by immunofluorescence microscopy. Intraperitoneal injections of BrdU (70 μmol/kg body weight) with a tissue half life of 2 hr were given every 48 hr, and rats were sacrificed after the third injection. Horizontal cryosections of 14 μm thickness spaced at 1 mm intervals were analyzed by laser scanning immunofluorescence microscopy. BrdU-positive cardiomyocyte nuclei and cytokineses were quantified on 16-20 sections per heart. Fibrosis and cardiomyocyte cross-sectional area were determined on 5 Masson's Trichrome-stained sections at the level of the injection at 40× magnification and quantified using the Metamorph software package (Molecular Devices Corp., Downingtown, Pa.).

[7] = test system: Adult male Sprague-Dawley rats; experiment: as above; set-up: species or system rat; conditions: dispersed isolated cardiomyocytes
[8] = test system: primary neonatal rat ventricular cardiomyocytes; experiment: Cardiomyocyte apoptosis (TUNEL) and survival
Method: To determine cardiomyocyte proliferation, primary neonatal rat ventricular cardiomyocytes were quantified by counting with a hemocytometer after 3 days and 6 days of stimulation. To determine cardiomyocyte survival, primary neonatal rat ventricular cardiomyocytes were pre-treated with 500 ng/mL periostin or buffer for 30 min and then exposed to 0.5 μM doxycycline or 100 ng/mL TNFα for 24 hr and quantified by counting. Corresponding samples were stained with an antibody directed against tropomyosin as a cardiomyocyte marker to control for the percentage of differentiated cardiomyocytes. Apoptotic cardiomyocyte nuclei were determined after 24 hr with the In situ Cell Death Detection Kit (Roche, Indianapolis, Ind.) in combination with staining for troponin I.

[9] = 1 week after intracardiac injection

B1: periostin: Recombinant periostin, purified from HEK293 cells expressing the full-length human cDNA; secreted protein of 834 amino acids (Seq ID. No. 1) (protein, listed as Homo sapiens)
chain: MIPFLPMFSLLLLLIVNPINANNHYDKILAHSRIRGRDQGPNVCALQQILGTKKKYFSTCKNWYKKSICGQKTTVLYECCPGYMRMEGMKGCPAVLPIDHVYGTLGIVGATTTQRYSDASKLREEIEGKGSFTYFAPSNEAWDNLDSDIRRGLESNVNVELLNALHSHMINKRMLTKDLKNGMIIPSMYNNLGLFINHYPNGVVTVNCARIIHGNQIATNGVVHVIDRVLTQIGTSIQDFIEAEDDLSSFRAAAITSDILEALGRDGHFTLFAPTNEAFEKLPRGVLERFMGDKVASEALMKYHILNTLQCSESIMGGAVFETLEGNTIEIGCDGDSITVNGIKMVNKKDIVTNNGVIHLIDQVLIPDSAKQVIELAGKQQTTFTDLVAQLGLASALRPDGEYTLLAPVNNAFSDDTLSMVQRLLKLILQNHILKVKVGLNELYNGQILETIGGKQLRVFVYRTAVCIENSCMEKGSKQGRNGAIHIFREIIKPAEKSLHEKLKQDKRFSTFLSLLEAADLKELLTQPGDWTLFVPTNDAFKGMTSEEKEILIRDKNALQNIILYHLTPGVFIGKGFEPGVTNILKTTQGSKIFLKEVNDTLLVNELKSKESDIMTTNGVIHVVDKLLYPADTPVGNDQLLEILNKLIKYIQIKFVRGSTFKEIPVTVYTTKIITKVVEPKIKVIEGSLQPIIKTEGPTLTKVKIEGEPEFRLIKEGETITEVIHGEPIIKKYTKIIDGVPVEITEKETREERIITGPEIKYTRISTGGGETEETLKKLLQEEVTKVTKFIEGGDGHLFEDEEIKRLLQGDTPVRKLQANKKVQGSRRRLREGRSQ
cytokinesis, of all differentiated cardiomyocytes ([1]; 9 days stimulation): 0.5±0.2%
BrdU-labeled nuclei in cardiomyocyte cytokineses ([1]; N=15): 100%
first detection of cytokinesis ([1]; time-course of stimulation): ≥ 6 days
DNA synthesis, of cardiomyocytes ([2]; 500 ng/mL, 3 days): 35±5%
increase of DNA synthesis over non-stimulated cardiomyocytes ([2]; 500 ng/mL, 3 days): 5 fold
increase of cardiomyocyte mitoses ([2]; 3 days): 12 fold
increase of cytokineses ([2]; 3 days): 8 fold
induction of cardiomyocyte DNA synthesis ([2]; FIG. 2d, 2e): stimulated DNA synthesis as effectively as FGF
EC50 ([2]; increasing concentrations of periostin (FIG. 2a), read-out: half-maximal stimulation of cardiomyocyte DNA synthesis): 155 ± 25 nM
increase of cardiomyocytes expressing cyclin A [3]: 11 fold
increase of cardiomyocytes with phosphorylated Rb [3]: 12 fold
increase of proliferating cardiomyocytes (Ki-67) [3]: 4 fold
transcription of atrial natriuretic factor (ANF) [4]: did not induce
[3H]leucine uptake (hypertrophy) [5]: did not induce uptake; also recorded: did not induce hypertrophy
LVFW BrdU-positive CM nuclei [6, 9]: 0.051 ± 0.0021 %
LVFW CM nuclei [6, 9]: 10.3 ± 0.3 10^$$ per heart
LVFW cytokineses [6, 9]: 0.008±0.002%
LVFW BrdU-positive CM nuclei ([6]; 1 week after intracardiac injection, 3 BrdU injections): 5,322±363 per heart
LVFW BrdU-positive CM nuclei ([6]; 1 week after intracardiac injection, 3 BrdU injections, listed as PN): 5411 ± 376 per heart
LVFW myocardial volume ([6]; 1 week after intracardiac injection, 50 μg periostin (fas1-4 domains) or 50 μg rat fibronectin): 211.3 ± 12.3 mm^3
LVFW cytokineses ([6]; 1 week after intracardiac injection, listed as Periostin): 821±176 per heart
fibrosis after intramyocardial injection ([6]; FIG. 4a): did not induce
hypertrophy (cardiomyocyte cross-sectional area) after intramyocardial injection ([6]; FIG. 4b): did not induce
H3P-positive binucleated cardiomyocytes ([6]; dispersed isolated cardiomyocytes, in vivo): 0.04±0.01%
DNA synthesis, of cardiomyocyte nuclei in the injected area ([6]; rat, in vivo): 0.7±0.1%
cytokinesis, of cardiomyocyte nuclei in the injected area ([6]; rat, in vivo): 0.1±0.03%
increase of DNA synthesis compared with buffer-injected hearts ([6]; rat, in vivo): 8 fold
increase of cytokinesis compared with buffer-injected hearts ([6]; rat, in vivo): 11.5 fold
H3P-positive mononucleated cardiomyocytes [7]: 2±0.2%
cardiomyocyte survival ([8]; 500 ng/mL pre-treatment, then doxorubicin or TNF-α 24 hr): not affected
doxorubicin or TNF-α-induced cardiomyocyte death ([8]; FIG. 2L): did not reduce
baseline and induced cardiomyocyte apoptosis ([8]; TUNEL, 24 hr): not affected

Reference: US8936806B2, “Periostin induces proliferation of cardiomyocytes and promotes cardiac regeneration” (Children's Medical Center Corporation, priority 2007, dated 2015)
